These results are taken from patent US8030325B2, “Biosynthetic gene cluster for the production of a complex polyketide” (Wyeth LLC, priority 2004, dated 2011).

The test system of this assay is mesencephalic dopanergic neuron cultures. The assay is described as follows: High-affinity 3H-DA uptake in ventral mesencephalic cultures, with or without MPP+ exposure. It is filed as cell-based, rat. As to conditions: for protection against MPP toxicity (3H-DA uptake): pre-treatment 1 hr or 24 hr, MPP+ 1 hr, recovery 24 hr or 48 hr. As to the method:
Ventral mesencephalic cultures were prepared from E15 rat embryos and maintained for […] before experimentation according to the method of Pong et al., J Neurochem.
Cultures were then exposed to 10 μM 1-methyl-4-phenylpyridinium (MPP+) for 1 hr, in the presence of drug. After the 1 hr exposure, media was changed 3×, and fresh drug was added for an additional 24 hr or 48 hr.

On to `CC/C1=C\CC(/C(C)=C/C(C)C(C)O)OC(=O)C2CCCCN2C(=O)C(=O)C2(O)OC(CCC2C)CC(O)C(C)C(O)CC(O)CC(O)/C(C)=C/C(C)CC(C)C1O` (stereo not drawn) [meridamycin], for which the “protection against MPP toxicity (3H-DA uptake)” value is recorded as “partial, but significant protection”.

B1: GDNF: glial-derived neurotrophic factor, control (protein, UniProt P39905 78-211, looked up)
Glial cell line-derived …: SPDKQMAVLPRRERNRQAAAANPENSRGKGRRGQRGKNRGCVLTAIHLNVTDLGLGYETKEELIFRYCSGSCDAAETTYDKILKNLSRNRRLVSDKVGQACCRPIAFDDDLSFLDDNLVYHILRKHSAKRCGCI
As to B1, the “protection against MPP toxicity (3H-DA uptake)” value is given as “partial, but significant protection”. Moreover, under “normal cultures, no MPP+”, the “DA uptake in normal mesencephalic dopanergic neuron cultures” value is on record as “enhanced DA uptake”.
